Experimental findings from patent publication EP1870467A1 (UNIVERSITY COLLEGE LONDON, dated 2007) are described below.

The data set concerns the molecule itself. Briefly: western blot, band at about 120kD read as a homodimer.

B1: full length MEPE (phosphatonin) expressed in an insect cell line and excreted into the medium (ligand)
chain: PTFQPQTEKTKQSCVEEQRQEEKNKDNIGFHHLGKRINQELSSKENIVQERKKDLSLSEASENKGSSKSQNYFTNRQRLNKEYSISNKENTHNGLRMSIYPKSTGNKGFEDGDDAISKLHDQEEYGAALIRNNMQHIMGPVTAIKLLGEENKENTPRNVLNIIPASMNYAKAHSKDKKKPQRDSQAQKSPVKSKSTHRIQHNIDYLKHLSKVKKIPSDFEGSGYTDLQERGDNDISPFSGDGQPFKDIPGKGEATGPDLEGKDIQTGFAGPSEAESTHLDTKKPGYNEIPEREENGGNTIGTRDETAKEADAVDVSLVEGSNDIMGSTNFKELPGREGNRVDAGSQNAHQGKVEFHYPPAPSKEKRKEGSSDAAESTNYNEIPKNGKGSTRKGVDHSNRNQATLNEKQRFPSKGKSQGLPIPSRGLDNEIKNEMDSFNGPSHENIITHGRKYHYVPHRQNNSTRNKGMPQGKGSWGRQPHSNRRFSSRRRDDSSESSDSGSSSESDGD
notes: Secreted into insect cell medium; also called full length phosphatonin; Bac-1
With B1, the binding result is on record as “binds”.
